The source of these data is patent US20040038400A1 (TRUSTEES OF DARTMOUTH COLLEGE, published 2004).

The assay has as its target T1, WC-1 (Neurospora, UniProt Q01371 1-1167).
T1 construct: Tested either as native protein in Neurospora nuclear extracts or as 'full-length WC-1' made in reticulocyte lysate; also called White Collar-1; WC-1 protein
As to the kind of experiment: EMSA supershift with nuclear extracts; complexes absent with extracts from wc-1 ER45 or wc-2 KO strains. An excerpt: The presence of WC-1 and WC-2 in the LRE-bound complexes was confirmed by the absence of complexes in binding reactions performed using nuclear protein extracts from wc-1^ER45 (loss-of-function) or wc-2^KO strains (Collett, et al. (2002) Genetics 160:149). […] Because WC-1 and WC-2 are known to complex with FRQ (Denault, et al. (2001) EMBO J. 20:109; Cheng, et al. (2001) EMBO J. 20:101; Merrow, et al. (2001) EMBO J. 20:307), the presence of FRQ in the complexes bound to the LREs was also determined using FRQ antiserum and extracts from an frq^KO strain. FRQ was not in the dark- or light-induced complexes bound to the LREs, nor was FRQ necessary for the formation of the complexes.
Binding reactions using nuclear protein extracts contained 1× binding buffer, […] KCl, 0.1 μg poly(dI-dC), 1 μl probe, 0.5 μl of normal rabbit sera (Pocono Rabbit Farm, Canadensis, Pa.), and 3 μg of nuclear protein extract, which was added last to the binding reactions, in a total volume of 20 μl. In reactions that contained antisera, 1 μl anti-WC-1, 1 μl anti-WC-2, or 0.5 μl anti-FRQ was used. Binding reactions using in vitro translated proteins contained 1× binding buffer, 1 μg poly(dI-dC), 1 μl probe, and 6 μl of the in vitro translation reaction in a total volume of 20 μl. […]
On the technique in general: Mobility shift assays separate free from complexed probe on a gel.

T1 sequence (Q01371 whole entry): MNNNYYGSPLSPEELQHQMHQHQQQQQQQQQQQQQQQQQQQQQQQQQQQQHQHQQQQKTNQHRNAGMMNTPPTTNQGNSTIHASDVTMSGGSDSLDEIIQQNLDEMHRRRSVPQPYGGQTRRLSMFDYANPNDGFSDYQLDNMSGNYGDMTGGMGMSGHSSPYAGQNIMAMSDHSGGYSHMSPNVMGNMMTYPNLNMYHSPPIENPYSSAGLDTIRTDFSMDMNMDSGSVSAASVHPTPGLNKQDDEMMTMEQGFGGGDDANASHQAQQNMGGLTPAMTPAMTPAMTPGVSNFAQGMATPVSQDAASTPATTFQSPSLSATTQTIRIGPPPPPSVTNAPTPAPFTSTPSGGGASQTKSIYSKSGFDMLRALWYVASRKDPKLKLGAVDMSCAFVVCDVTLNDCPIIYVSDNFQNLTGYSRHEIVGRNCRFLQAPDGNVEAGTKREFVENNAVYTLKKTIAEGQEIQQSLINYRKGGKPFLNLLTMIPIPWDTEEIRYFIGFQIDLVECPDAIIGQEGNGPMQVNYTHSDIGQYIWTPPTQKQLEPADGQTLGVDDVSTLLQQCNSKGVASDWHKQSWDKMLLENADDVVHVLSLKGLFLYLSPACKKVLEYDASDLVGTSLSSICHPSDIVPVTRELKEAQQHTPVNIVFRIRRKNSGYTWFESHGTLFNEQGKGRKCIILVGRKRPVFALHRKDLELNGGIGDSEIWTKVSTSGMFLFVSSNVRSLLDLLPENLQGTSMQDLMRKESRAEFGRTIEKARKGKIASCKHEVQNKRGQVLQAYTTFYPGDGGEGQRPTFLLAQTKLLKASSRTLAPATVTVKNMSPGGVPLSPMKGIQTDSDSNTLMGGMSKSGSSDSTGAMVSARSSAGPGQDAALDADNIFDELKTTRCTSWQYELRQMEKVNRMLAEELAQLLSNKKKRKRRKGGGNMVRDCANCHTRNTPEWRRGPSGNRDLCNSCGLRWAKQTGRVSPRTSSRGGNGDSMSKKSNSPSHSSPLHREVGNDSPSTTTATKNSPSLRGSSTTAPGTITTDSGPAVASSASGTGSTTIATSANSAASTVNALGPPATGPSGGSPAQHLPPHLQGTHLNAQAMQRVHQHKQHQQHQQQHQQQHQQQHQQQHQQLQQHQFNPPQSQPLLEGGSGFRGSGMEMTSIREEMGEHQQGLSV

B1: WC-2 (other, Neurospora, UniProt P78714 1-530, looked up)
chain: MSHGQPPPGSSMYGFGAMGMGSGMGSGMGSGMGTGMGTGMGTGMSASQMTSDPQDMMSLLDTSVFPGFDGMSMSLDVGDSMSNPFTPVSVPPPLPAGNAGPSHVGVCGGHGAPDQLFSPDDLIATSMSSAGPMIATPTTTTSGPSGGPSSGGGSTLTEFTKRRNWPAKVVEELQDWEHILDANGRIKHVSPSVEPLTGYKPPEIIDLFLRDLIHPDDVGVFTAELNEAIATGSQLRLFYRFRKKDGNWTIFETVGHAHIAAAKFAPNPQNQSPFCQAVFMMARPYPTKNAGLLDSFLEHKIENERLKRRIAELRREEQEEQEESHRTWRMSQEGRSDVTPSDDTATQMGMTPFYIPMNAQADVMMPPPSQPASSLNIALTRENLEGIAGSRPDSIREKMLRYEGNHADTIEMLTGLKYQEGERSHGITTGNASPTLIKGDAGIAIPLDRDPRTGEKKKKIKVAEEYVCTDCGTLDSPEWRKGPSGPKTLCNACGLRWAKKEKKKNANNNNNGGGIGGHNDIHTPMGDHMG
notes: Transcription factor; Tested either as native protein in Neurospora nuclear extracts or as 'full length WC-2' made in reticulocyte lysate; also called White Collar-2; WC-2 protein
With B1, the binding result is listed as “binds”.
